Reference: paper PMC10115243 (Nature plants, 2023)

Tests used:
[1] = biological target: Populus trichocarpa galactan synthase 1 (GalS1), residues 73-495, tag removed (Populus trichocarpa); assay: SEC-MALS + other: SAXS
[2] = biological target: Populus trichocarpa galactan synthase 1 (GalS1), residues 73-495, tag removed (Populus trichocarpa); assay: SEC-MALS
[3] = biological target: GalS1-ΔSTEM (Populus trichocarpa GalS1 lacking the stem region, residues 73-113) (Populus trichocarpa); assay: SEC-MALS

Substance | stoichiometry N [1] | stoichiometry N [2] | stoichiometry N [3]
Populus trichocarpa galactan synthase 1 (GalS1), residues 73-495, tag removed (enzyme) | 2 | 2 | –
GalS1-ΔSTEM (Populus trichocarpa GalS1 lacking the stem region, residues 73-113) (domain or fragment) | – | – | 2
